According to the supplement of paper PMC10065799, “High-throughput profiling of sequence recognition by tyrosine kinases and SH2 domains using bacterial peptide display” (eLife, 2023):

Tests used:
[1] = tested on: AncSZ; assay: phosphorylation enrichment, bacterial display (enrichment ratio); higher = better substrate or ligand; peptides without Tyr show the background
[2] = molecular target: EPHB1 (UniProt P54762); assay: as above
[3] = molecular target: EPHB2 (UniProt P29323); assay: as above
Chain of EPHB2 (P29323 whole entry, looked up): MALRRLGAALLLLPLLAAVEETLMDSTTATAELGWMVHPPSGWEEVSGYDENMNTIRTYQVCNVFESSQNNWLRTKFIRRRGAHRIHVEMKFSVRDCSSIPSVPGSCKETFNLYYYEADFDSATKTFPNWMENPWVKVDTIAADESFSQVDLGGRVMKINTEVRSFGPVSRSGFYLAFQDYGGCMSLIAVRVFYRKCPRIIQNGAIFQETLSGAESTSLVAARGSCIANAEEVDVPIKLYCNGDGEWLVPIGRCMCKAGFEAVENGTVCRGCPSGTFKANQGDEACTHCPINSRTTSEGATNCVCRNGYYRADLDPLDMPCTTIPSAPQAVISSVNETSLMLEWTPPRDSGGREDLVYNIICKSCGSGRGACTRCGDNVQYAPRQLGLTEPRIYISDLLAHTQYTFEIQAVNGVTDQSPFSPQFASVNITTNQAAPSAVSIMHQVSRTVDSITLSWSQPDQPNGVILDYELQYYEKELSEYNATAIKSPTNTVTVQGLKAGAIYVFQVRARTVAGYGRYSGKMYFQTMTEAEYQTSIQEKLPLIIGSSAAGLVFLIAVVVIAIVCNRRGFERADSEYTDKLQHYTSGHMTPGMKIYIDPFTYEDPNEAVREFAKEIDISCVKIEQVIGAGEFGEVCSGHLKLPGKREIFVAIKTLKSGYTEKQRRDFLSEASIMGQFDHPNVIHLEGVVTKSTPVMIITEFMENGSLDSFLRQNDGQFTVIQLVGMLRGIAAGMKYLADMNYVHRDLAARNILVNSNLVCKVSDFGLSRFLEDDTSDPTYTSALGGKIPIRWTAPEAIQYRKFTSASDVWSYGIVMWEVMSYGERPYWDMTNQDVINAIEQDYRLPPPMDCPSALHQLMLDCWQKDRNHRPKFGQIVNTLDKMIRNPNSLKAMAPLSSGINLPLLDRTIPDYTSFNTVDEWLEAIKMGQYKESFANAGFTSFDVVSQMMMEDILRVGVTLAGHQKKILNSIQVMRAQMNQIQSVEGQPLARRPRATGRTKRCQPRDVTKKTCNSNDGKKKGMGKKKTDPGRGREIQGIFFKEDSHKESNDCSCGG

[4] = molecular target: FGFR1 (UniProt P11362); assay: as above
[5] = molecular target: FGFR3 (UniProt P22607); assay: as above
[6] = tested on: Fer (mouse); assay: as above
[7] = molecular target: Fes (UniProt P07332); assay: as above
[8] = molecular target: Fyn (UniProt P06241); assay: as above
[9] = molecular target: Hck (UniProt P08631); assay: as above
Chain of Hck (P08631 whole entry, looked up): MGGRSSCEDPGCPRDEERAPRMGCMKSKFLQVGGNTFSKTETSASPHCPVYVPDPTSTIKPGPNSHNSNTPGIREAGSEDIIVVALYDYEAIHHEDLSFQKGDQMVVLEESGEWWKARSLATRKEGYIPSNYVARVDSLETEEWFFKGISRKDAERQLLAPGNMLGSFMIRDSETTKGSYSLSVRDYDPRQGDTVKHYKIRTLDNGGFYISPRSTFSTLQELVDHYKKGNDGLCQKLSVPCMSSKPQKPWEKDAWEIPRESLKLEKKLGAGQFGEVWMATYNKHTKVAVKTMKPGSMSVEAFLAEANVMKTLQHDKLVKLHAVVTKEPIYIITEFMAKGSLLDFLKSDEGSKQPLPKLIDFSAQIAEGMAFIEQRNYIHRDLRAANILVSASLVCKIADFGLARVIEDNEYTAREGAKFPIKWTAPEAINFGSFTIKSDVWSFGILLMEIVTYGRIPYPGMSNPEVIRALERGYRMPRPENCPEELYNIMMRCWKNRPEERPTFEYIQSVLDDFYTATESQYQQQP

[10] = molecular target: Jak2 (UniProt O60674); assay: as above
Chain of Jak2 (O60674 whole entry, looked up): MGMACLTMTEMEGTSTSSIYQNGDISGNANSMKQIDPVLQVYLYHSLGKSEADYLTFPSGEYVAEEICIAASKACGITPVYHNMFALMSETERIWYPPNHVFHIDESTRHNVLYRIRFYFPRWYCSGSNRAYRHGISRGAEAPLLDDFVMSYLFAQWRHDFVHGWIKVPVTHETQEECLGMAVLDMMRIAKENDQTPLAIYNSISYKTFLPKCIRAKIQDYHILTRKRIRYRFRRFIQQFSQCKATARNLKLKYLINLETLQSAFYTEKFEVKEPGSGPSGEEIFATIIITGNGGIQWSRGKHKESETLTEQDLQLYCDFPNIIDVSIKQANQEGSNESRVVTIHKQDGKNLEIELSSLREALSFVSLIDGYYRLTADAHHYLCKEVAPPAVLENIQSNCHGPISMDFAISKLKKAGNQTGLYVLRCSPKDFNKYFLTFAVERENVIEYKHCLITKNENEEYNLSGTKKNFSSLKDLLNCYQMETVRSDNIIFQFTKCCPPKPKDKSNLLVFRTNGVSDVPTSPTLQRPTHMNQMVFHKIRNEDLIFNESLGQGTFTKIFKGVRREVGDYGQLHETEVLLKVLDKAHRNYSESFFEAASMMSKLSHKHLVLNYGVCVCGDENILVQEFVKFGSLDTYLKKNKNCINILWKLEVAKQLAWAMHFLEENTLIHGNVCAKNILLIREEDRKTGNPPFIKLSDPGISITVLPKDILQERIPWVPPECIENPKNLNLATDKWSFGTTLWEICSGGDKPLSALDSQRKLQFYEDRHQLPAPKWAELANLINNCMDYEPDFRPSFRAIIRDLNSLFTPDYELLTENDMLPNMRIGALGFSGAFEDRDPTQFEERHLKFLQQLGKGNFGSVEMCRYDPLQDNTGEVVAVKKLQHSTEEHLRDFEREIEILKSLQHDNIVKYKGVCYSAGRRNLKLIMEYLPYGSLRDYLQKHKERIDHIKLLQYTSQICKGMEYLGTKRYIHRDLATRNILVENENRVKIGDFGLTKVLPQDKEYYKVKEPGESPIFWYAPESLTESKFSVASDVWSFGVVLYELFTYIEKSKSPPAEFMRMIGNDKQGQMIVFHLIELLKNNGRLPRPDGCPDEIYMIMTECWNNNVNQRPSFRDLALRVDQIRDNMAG

[11] = molecular target: MERTK (UniProt Q12866); assay: as above
Chain of MERTK (Q12866 whole entry, looked up): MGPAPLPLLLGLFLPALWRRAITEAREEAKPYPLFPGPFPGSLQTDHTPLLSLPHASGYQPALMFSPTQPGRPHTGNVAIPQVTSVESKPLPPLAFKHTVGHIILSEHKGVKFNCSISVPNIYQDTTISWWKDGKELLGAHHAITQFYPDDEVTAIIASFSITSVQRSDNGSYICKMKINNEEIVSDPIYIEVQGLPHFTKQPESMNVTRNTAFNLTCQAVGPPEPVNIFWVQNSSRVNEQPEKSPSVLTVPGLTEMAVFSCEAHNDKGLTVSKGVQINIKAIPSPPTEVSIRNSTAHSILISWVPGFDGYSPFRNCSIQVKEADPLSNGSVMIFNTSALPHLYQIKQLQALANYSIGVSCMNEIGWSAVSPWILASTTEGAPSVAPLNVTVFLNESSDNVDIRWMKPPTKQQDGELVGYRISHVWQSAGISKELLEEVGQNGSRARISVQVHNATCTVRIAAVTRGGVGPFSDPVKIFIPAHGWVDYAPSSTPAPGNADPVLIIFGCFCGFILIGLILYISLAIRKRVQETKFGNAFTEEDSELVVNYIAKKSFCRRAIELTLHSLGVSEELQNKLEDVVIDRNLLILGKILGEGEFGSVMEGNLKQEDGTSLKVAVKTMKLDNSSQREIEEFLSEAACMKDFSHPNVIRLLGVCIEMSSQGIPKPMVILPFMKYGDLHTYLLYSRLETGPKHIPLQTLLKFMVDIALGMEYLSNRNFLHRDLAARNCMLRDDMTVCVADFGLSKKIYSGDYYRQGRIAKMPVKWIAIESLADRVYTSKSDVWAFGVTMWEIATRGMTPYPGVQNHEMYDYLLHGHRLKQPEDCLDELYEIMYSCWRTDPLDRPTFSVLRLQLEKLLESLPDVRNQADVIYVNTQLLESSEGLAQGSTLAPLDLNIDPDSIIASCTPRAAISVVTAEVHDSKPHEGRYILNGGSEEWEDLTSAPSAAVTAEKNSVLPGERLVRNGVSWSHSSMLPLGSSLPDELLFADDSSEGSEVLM

[12] = tested on: c-Abl (mouse); assay: as above
[13] = tested on: c-Src; assay: as above
[14] = molecular target: Grb2 SH2 (UniProt P62993); assay: SH2 binding enrichment of the phosphorylated peptide, bacterial display (enrichment ratio); higher = better substrate or ligand; peptides without Tyr show the background
Chain of Grb2 SH2 (P62993 whole entry, looked up): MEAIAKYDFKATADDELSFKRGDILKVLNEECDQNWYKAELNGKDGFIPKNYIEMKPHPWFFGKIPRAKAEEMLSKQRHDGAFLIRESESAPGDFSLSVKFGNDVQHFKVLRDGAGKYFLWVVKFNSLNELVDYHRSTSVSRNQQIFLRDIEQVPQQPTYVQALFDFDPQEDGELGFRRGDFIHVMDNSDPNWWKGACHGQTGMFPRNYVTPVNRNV

[15] = molecular target: SHP2-C SH2; assay: as above
[16] = molecular target: c-Src SH2; assay: as above
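For SH2 binding enrichment of the phosphorylated peptide, bacterial display in this document: peptide library displayed on the E. coli surface as eCPX fusions, selected cells deep-sequenced, score is each peptide's frequency after selection divided by its frequency in the input.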
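For phosphorylation enrichment, bacterial display in this document: 11-residue human phosphosite peptides and single-mutation variants displayed on the E. coli surface, counted by deep sequencing, each peptide's frequency after selection divided by its frequency in the unselected input library; frequency after pTyr selection over input frequency; kinase dosed for 20-30% of maximal phosphorylation in three min.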

Chain of EPHB1 (P54762 whole entry, looked up): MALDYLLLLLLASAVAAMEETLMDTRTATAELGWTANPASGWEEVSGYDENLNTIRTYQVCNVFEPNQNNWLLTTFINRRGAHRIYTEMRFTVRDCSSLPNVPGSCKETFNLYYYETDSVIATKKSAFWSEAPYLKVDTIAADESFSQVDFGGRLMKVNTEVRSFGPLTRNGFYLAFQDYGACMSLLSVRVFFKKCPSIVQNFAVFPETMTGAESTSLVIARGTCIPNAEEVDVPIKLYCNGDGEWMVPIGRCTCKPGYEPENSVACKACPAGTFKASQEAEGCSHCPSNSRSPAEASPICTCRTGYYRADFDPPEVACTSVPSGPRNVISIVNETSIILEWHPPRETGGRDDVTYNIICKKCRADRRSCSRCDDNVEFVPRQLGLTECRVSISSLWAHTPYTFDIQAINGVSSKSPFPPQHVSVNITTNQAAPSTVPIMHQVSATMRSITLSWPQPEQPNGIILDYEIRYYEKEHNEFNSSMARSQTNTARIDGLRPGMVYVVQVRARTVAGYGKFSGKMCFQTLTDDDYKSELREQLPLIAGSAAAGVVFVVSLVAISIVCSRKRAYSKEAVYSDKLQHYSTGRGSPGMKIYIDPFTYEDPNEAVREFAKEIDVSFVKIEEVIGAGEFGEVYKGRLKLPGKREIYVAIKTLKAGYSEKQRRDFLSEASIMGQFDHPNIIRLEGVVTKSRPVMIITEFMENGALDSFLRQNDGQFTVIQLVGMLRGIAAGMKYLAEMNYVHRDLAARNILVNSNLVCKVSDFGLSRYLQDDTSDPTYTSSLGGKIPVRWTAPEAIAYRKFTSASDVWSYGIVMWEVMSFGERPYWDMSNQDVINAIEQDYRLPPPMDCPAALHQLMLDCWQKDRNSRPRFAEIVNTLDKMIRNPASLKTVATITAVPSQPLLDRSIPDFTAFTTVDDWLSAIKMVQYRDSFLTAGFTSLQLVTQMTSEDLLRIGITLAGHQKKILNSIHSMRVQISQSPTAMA

Sequence	phosphorylation enrichment [1]	phosphorylation enrichment [2]	phosphorylation enrichment [3]	phosphorylation enrichment [4]	phosphorylation enrichment [5]	phosphorylation enrichment [6]	phosphorylation enrichment [7]	phosphorylation enrichment [8]	phosphorylation enrichment [9]	phosphorylation enrichment [10]	phosphorylation enrichment [11]	phosphorylation enrichment [12]	phosphorylation enrichment [13]	SH2 binding enrichment [14]	SH2 binding enrichment [15]	SH2 binding enrichment [16]
TDLAFYLVCKG [ASL_Y376_R379C_YF]	1.31	0.79	0.593	0.551	0.94	0.647	1.7	0.411	0.547	1.57	0.446	1.14	0.48	0.732	0.461	0.388
MARDIYRASFF [ALK_Y1278_YF]	0.67	0.425	0.434	0.435	0.449	0.375	0.797	0.566	0.661	0.608	0.472	3.1	0.597	0.843	0.76	0.52
EEGNPSFSSAR [MCCC2_Y520_Y520S_YF]	0.682	0.418	0.467	0.388	0.623	0.426	0.876	0.42	0.395	0.826	0.459	0.681	0.433	0.75	0.574	0.462
SYMVRYNQPRV [GRIN2D_Y736]	0.721	0.46	0.51	0.561	0.523	0.419	0.734	0.38	0.385	0.651	0.45	0.694	0.432	0.871	1.25	1.11
RGLQVYHKRNA [LRP2_Y2010_R2012K]	0.545	0.45	0.468	0.433	0.642	0.517	0.985	0.496	0.59	0.654	0.496	0.561	0.497	0.943	0.539	0.567
KICDWYQRQRP [KRT14_Y151_R148C]	1	0.398	0.602	0.466	0.598	0.513	0.9	0.447	0.407	0.651	0.511	0.555	0.48	0.854	0.75	0.616
DRLAVYIDRVS [LMNA_Y45_R50S]	0.881	0.472	0.5	0.463	0.638	0.397	0.953	0.428	0.503	0.725	0.33	0.351	0.311	0.807	0.589	0.58
EFLHKYKGFKI [SYNE1_Y6953_Q6951H_YF]	0.857	0.458	0.264	0.397	0.545	0.379	0.765	0.318	0.435	0.667	0.431	0.697	0.508	0.832	0.998	0.34
KVPELYEIHKE [BCR_Y554]	1.03	0.93	0.868	0.593	0.817	0.976	1.08	0.631	0.853	0.766	0.619	0.714	0.603	0.996	0.751	0.701
SVVVPYEPPGV [TP53_Y220_E224G]	0.883	0.525	0.53	0.469	0.56	0.498	0.769	0.544	0.471	0.55	0.485	0.494	0.407	0.826	0.781	0.936
GQETSYIEDNC [PAH_Y24]	1.47	0.83	0.758	0.452	0.769	0.51	1.28	0.507	0.666	1.15	0.466	0.74	0.515	1.05	0.559	0.68
FHRQLYHKCTH [F12_Y58_YF]	0.601	0.855	0.495	0.387	0.442	0.398	0.76	0.371	0.425	0.623	0.385	0.502	0.375	1.03	0.933	0.916
EVESPYEVHDF [GIGYF2_Y1168_YF]	1.93	0.837	0.922	0.593	0.81	12.3	1.3	5.32	1.44	1.23	0.974	0.825	5.45	0.785	0.832	0.486
RAIDMYLMGCF [GABRB2_Y308_K303R]	1.87	0.848	0.706	0.777	1.19	0.799	1.79	0.907	0.888	1.83	0.601	1.58	1.29	0.886	0.572	0.332
SVEVPYEPPEV [TP53_Y220_V217E]	1.44	0.579	0.675	0.622	0.907	0.572	1.4	0.603	0.596	1.41	0.564	1.08	0.549	0.977	0.797	0.591
PEVRRYVLPLN [RPE65_Y368]	1.41	1.3	0.811	0.606	1.3	0.893	1.45	0.597	0.916	1.2	0.92	1.44	0.804	0.807	0.64	0.878
YPPDGYSRHCE [CTNND1_Y213_Y217C]	0.883	0.461	0.487	0.496	0.568	0.514	0.941	0.585	0.555	0.816	0.505	0.738	0.462	0.9	0.666	0.693

Sequence	phosphorylation enrichment [1]	phosphorylation enrichment [2]	phosphorylation enrichment [3]	phosphorylation enrichment [4]	phosphorylation enrichment [5]	phosphorylation enrichment [6]	phosphorylation enrichment [7]	phosphorylation enrichment [8]	phosphorylation enrichment [9]	phosphorylation enrichment [10]	phosphorylation enrichment [11]	phosphorylation enrichment [12]	phosphorylation enrichment [13]	SH2 binding enrichment [14]	SH2 binding enrichment [15]	SH2 binding enrichment [16]
QDEPTYARSSK [PEAK1_Y616_H611Q]	0.787	0.389	0.498	0.603	0.508	0.466	0.869	0.554	0.838	0.685	0.513	0.738	0.661	0.816	0.69	0.561
ALAHKYQGGGG [HBB_Y146_H147Q]	0.824	0.204	0.436	0.476	0.476	0.283	0.58	0.451	0.375	0.527	0.588	0.565	0.491	0.691	0.546	0.415
CKSVHYDLVFL [COL22A1_Y37]	1.24	0.806	0.739	0.532	0.866	9.46	1.38	0.554	0.632	1.19	1.56	0.93	0.528	0.775	0.613	0.986
LKYAIYFEARE [LAMA2_Y1258]	2.42	1.59	1.4	0.938	1.64	0.822	2.41	1.21	1.67	3.01	0.907	1.94	1.49	0.907	0.793	0.449
HNLDFYKETTN [FGFR3_Y648_K650E_YF]	1.23	0.891	0.496	0.645	0.915	0.656	1.5	0.731	0.53	1.48	0.662	1.14	1.14	0.841	1.39	0.995
FLAVEYHKPHI [IDS_Y225_G224E]	0.779	0.417	0.459	0.393	0.515	0.354	0.814	0.337	0.38	1.05	0.302	1.6	0.387	1.32	0.653	0.925
NKEAIYSGYIR [SMCHD1_Y283]	0.724	5.4	11.2	0.565	0.526	3.43	0.687	11.3	10.4	0.571	9.45	24.3	7.96	0.871	0.845	0.567
MSNFACVKREV [SCN1A_Y1694_Y1694C]	0.768	0.49	0.45	0.486	0.592	0.437	0.911	0.449	0.51	0.674	0.383	0.506	0.446	0.88	0.612	0.514
FDDIAYIRKNL [PIK3CA_Y1021_T1025N]	0.864	0.409	0.506	0.432	0.56	0.361	0.852	0.403	0.5	0.494	0.416	0.483	0.379	0.768	0.759	0.556
YAFQLYDLDRD [CHP2_Y123]	1.24	1.69	0.765	1.89	1.55	1.12	1.17	2.66	1.73	0.969	2.83	0.768	3.19	0.879	2.55	1.58
TYTVSYLPDMS [FLNC_Y1602]	1.05	0.528	0.705	0.512	0.656	0.491	0.874	0.568	0.582	0.903	0.733	0.55	0.561	0.792	0.623	0.375
RAYRHYLLKQK [SCN2A_Y1919_R1918H]	0.52	0.334	0.602	0.31	0.607	0.332	0.597	0.632	0.414	0.47	0.571	0.376	0.583	0.677	0.51	0.442
RGDCMYAPLLG [AR_Y269]	0.898	7.23	8.4	3.08	1.83	4.16	0.885	8.2	10.9	0.743	10.4	5.89	5.61	0.98	0.739	1.04
SPRDTYSDRSG [CTPS1_Y567]	0.494	0.298	0.473	0.382	0.438	0.369	0.572	0.443	0.507	0.521	0.322	0.608	0.375	0.76	0.503	0.479
EKLQKYFRQNP [EHHADH_Y682_YF]	0.802	0.375	0.35	0.358	0.472	0.365	0.742	0.431	0.351	0.549	0.354	0.942	0.408	0.871	0.761	0.355
KEEEDYREENN [BMS1_Y651_K652R]	1.3	0.63	0.528	0.582	0.79	0.585	1.24	0.5	0.65	1.15	0.601	0.877	0.536	0.754	0.822	0.458
